The values below come from article PMC8888459.

This test deals with NIA–Isu1 complex with C. thermophilum Isu1 (S. cerevisiae | E. coli (endogenous in the expression host) | C. thermophilum) (UniProt P25374). Nature of the test: pull-down; competition: Yfh1^GST (2.5 μM) with NIA (5 μM) and Isu1Ct (7.5 μM), then Yah1 WT (increasing concentrations, 50 μM) or Yah1(DD/KK) (50 μM) added; glutathione resin; densitometry, amount without Yah1 set as 100%; buffer PD.
Sequence of NIA–Isu1 complex with C. thermophilum Isu1 (S. cerevisiae | E. coli (endogenous in the expression host) | C. thermophilum) (P25374 whole entry, looked up, one chain of several): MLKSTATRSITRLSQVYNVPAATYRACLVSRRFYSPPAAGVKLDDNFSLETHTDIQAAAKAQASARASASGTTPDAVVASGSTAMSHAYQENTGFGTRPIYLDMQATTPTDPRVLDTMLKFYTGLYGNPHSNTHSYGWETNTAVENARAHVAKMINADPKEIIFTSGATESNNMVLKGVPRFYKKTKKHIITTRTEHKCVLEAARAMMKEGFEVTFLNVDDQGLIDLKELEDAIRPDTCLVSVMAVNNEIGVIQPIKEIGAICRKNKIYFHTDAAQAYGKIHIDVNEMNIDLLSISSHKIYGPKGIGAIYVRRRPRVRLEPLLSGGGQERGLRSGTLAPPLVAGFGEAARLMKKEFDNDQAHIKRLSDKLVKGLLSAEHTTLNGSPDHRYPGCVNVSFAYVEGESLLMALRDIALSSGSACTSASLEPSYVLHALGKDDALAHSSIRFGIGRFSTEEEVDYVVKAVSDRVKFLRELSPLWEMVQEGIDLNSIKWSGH

B1: Yah1 (untagged, holo) (natural protein)
chain: IAAHLLRTSPSLLTRTTTTTRFLPFSTSSFLNHGHLKKPKPGEELKITFILKDGSQKTYEVCEGETILDIAQGHNLDMEGACGGSCACSTCHVIVDPDYYDALPEPEDDENDMLDLAYGLTETSRLGCQIKMSKDIDGIRVALPQMTRNVNNNDFS
For B1, the percent of the control left pulled down with Yfh1^GST at 75 μM Yah1 is 35%.
